Residue numbers refer to the chain shown, from its start.
B1: VHH6 (VHH)
VHH: ELQLVESGGGLVQPGGSLSLSCEVSGFSFDDVDNFIIAWFRQAPGKEREGVSFLRKYDMSTYYAESVKGRFTISSDNARDTVYLQMTNLKPEDTAVYYCALDREGFVFEQGMDFWGKGTQVTVSS
notes: also called WT VHH6; WT; source: E. coli BL21(DE3), pRA2 vector with PelB signal peptide, purified (Ni-NTA, SEC)
B2: VHH35 (VHH)
VHH: B1 VHH with E1Q
notes: also called VHH number 35; hit clone 35; source: E. coli BL21(DE3), pRA2 vector with PelB signal peptide, purified (Ni-NTA, SEC)
B3: VHH6 R55A (VHH)
VHH: B1 VHH with R55A
notes: source: E. coli BL21(DE3), purified as the WT (Ni-NTA, SEC)
B4: VHH6 F106A (VHH)
VHH: B1 VHH with F106A
notes: as for B3
B5: VHH6 Y57A (VHH)
VHH: B1 VHH with Y57A
notes: as for B3
B6: VHH6 F108A (VHH)
VHH: B1 VHH with F108A
notes: as for B3
B7: VHH6 V107A (VHH)
VHH: B1 VHH with V107A
notes: as for B3
B8: VHH6 E104A (VHH)
VHH: B1 VHH with E104A
notes: as for B3
B9: VHH6 D33A (VHH)
VHH: B1 VHH with D33A
notes: as for B3
B10: VHH6 Y62A (VHH)
VHH: B1 VHH with Y62A
notes: as for B3

molecular target: T1, IsdH NEAT3 (Staphylococcus aureus (Mu50 for the …, UniProt Q931P4)); experiment: SPR; details: both partners purified
T1 construct: also called NEAT3 domain (no linker)

Point of comparison: B2, Kd 237 nM. Against it:
- B1 — 2.7-fold higher, 637 nM

Point of comparison: B1, koff 0.0235 s⁻¹. Against it:
- B2 — 2.6-fold lower, 0.00918 s⁻¹

Point of comparison: B1, kon 37000 M⁻¹ s⁻¹. Against it:
- B2 — within 1.5-fold, 39000 M⁻¹ s⁻¹

molecular target: T2, IsdH linker-NEAT3 (Staphylococcus aureus Mu50, UniProt Q931P4); experiment: SPR; details: both partners purified

Point of comparison: B1, Kd 0.53 nM. Against it:
- B2 — the same, 0.53 nM

Point of comparison: B1, koff 4.2e-05 s⁻¹. Against it:
- B2 — within 1.5-fold, 3.5e-05 s⁻¹

Point of comparison: B2, kon 66000 M⁻¹ s⁻¹. Against it:
- B1 — within 1.5-fold, 81000 M⁻¹ s⁻¹

molecular target: T2, IsdH linker-NEAT3; experiment: SPR; details: both partners purified; remark: another data set of the same source

Point of comparison: B3, Kd 25.4 nM. Against it:
- B4 — 8.2-fold lower, 3.1 nM
- B5 — 4.5-fold higher, 114 nM
- B6 — 9.8-fold lower, 2.6 nM
- B7 — 2.6-fold lower, 9.7 nM
- B8 — 4-fold lower, 6.4 nM
- B9 — 12-fold lower, 2.08 nM
- B10 — 1.8-fold higher, 45.4 nM

Point of comparison: B4, koff 0.00031 s⁻¹. Against it:
- B3 — 28-fold higher, 0.00855 s⁻¹
- B5 — 46-fold higher, 0.0144 s⁻¹
- B6 — 1.6-fold higher, 0.00049 s⁻¹
- B7 — 3.4-fold higher, 0.00105 s⁻¹
- B8 — 4.6-fold higher, 0.00142 s⁻¹
- B9 — 2.4-fold lower, 0.00013 s⁻¹
- B10 — 6.7-fold higher, 0.00207 s⁻¹

Point of comparison: B9, kon 62000 M⁻¹ s⁻¹. Against it:
- B3 — 4.6-fold higher, 284000 M⁻¹ s⁻¹
- B4 — 1.6-fold higher, 99000 M⁻¹ s⁻¹
- B5 — 2-fold higher, 126000 M⁻¹ s⁻¹
- B6 — 3-fold higher, 189000 M⁻¹ s⁻¹
- B7 — 1.8-fold higher, 109000 M⁻¹ s⁻¹
- B8 — 2.4-fold higher, 151000 M⁻¹ s⁻¹
- B10 — within 1.5-fold, 46000 M⁻¹ s⁻¹

molecular target: T2, IsdH linker-NEAT3; experiment: ITC; details: both partners purified

Point of comparison: B9, dH -14.7 kcal/mol. Against it:
- B3 — lower, -15.9 kcal/mol
- B4 — lower, -16.6 kcal/mol
- B5 — higher, -9.7 kcal/mol
- B6 — lower, -19.3 kcal/mol
- B7 — lower, -15.9 kcal/mol
- B8 — higher, -13.6 kcal/mol
- B10 — higher, -11.1 kcal/mol

Point of comparison: B8, “stoichiometry N” value 0.99 mol:mol. Against it:
- B3 — lower, 0.94 mol:mol
- B4 — higher, 1.01 mol:mol
- B5 — higher, 1.03 mol:mol
- B6 — lower, 0.97 mol:mol
- B7 — lower, 0.96 mol:mol
- B9 — higher, 1.01 mol:mol
- B10 — lower, 0.93 mol:mol

molecular target: T3, IsdB linker-NEAT2 (Staphylococcus aureus Mu50 (by deposit …)); experiment: ITC; details: both partners purified

Work on B1 yielded a dH of -24.2 kcal/mol.

With B1 the “stoichiometry N” value was 0.8 mol:mol.

molecular target: T1, IsdH NEAT3; experiment: ITC; details: both partners purified

Point of comparison: B2, dH -17 kcal/mol. Against it:
- B1 — higher, -11.9 kcal/mol

Point of comparison: B1, “stoichiometry N” value 0.9 mol:mol. Against it:
- B2 — higher, 1.02 mol:mol

molecular target: T2, IsdH linker-NEAT3; experiment: ITC; details: both partners purified; remark: another data set of the same source

Point of comparison: B1, dH -17.1 kcal/mol. Against it:
- B2 — higher, -16 kcal/mol

Point of comparison: B1, “stoichiometry N” value 1.1 mol:mol. Against it:
- B2 — lower, 0.98 mol:mol

molecular target: T1, IsdH NEAT3; experiment: SPR; details: both partners purified; remark: another data set of the same source

In the case of B1, the Kd is reported as 638 nM.

molecular target: T2, IsdH linker-NEAT3; experiment: SPR; details: both partners purified; remark: another data set of the same source

For B5, the koff was 144 s⁻¹.

molecular target: T3, IsdB linker-NEAT2; experiment: SPR; details: both partners purified

Binder B1 has a Kd of 0.25 nM.

Binder B1 has a koff of 4e-05 s⁻¹.

B1 gave a kon of 160000 M⁻¹ s⁻¹.
